The target in assay [1] is T1, hiR2-FL-K536A-T7 (human iRhom2 full length K536A, 3 x T7 tag) (human, UniProt Q6PJF5 1-856).
T1 sequence: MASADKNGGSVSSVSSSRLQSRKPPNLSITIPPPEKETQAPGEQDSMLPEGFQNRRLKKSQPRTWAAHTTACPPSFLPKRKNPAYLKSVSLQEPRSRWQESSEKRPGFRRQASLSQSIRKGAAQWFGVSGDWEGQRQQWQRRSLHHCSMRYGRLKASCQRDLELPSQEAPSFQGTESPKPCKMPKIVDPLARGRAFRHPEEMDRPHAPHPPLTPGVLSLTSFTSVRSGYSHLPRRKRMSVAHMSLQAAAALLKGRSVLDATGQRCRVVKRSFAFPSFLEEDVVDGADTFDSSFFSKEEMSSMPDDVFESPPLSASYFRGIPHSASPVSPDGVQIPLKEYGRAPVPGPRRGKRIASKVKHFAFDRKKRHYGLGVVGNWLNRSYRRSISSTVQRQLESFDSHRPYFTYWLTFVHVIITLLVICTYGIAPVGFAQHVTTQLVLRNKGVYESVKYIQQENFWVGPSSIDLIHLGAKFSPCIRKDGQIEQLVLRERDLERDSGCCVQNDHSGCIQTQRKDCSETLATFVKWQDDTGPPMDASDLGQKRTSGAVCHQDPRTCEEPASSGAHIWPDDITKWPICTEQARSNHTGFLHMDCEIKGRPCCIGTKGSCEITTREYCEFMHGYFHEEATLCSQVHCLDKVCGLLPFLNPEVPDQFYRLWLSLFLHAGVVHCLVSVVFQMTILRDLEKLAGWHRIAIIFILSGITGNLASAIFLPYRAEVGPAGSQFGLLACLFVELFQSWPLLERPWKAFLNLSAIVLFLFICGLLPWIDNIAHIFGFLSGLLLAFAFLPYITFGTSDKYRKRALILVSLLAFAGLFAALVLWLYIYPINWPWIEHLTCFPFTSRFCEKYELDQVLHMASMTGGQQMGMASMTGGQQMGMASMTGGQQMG
The assay can be described thus: FACS on MEF-DKO-hiR2-FL-K536A-T7 cells, PE anti-mouse IgG F(ab')2 detection.

For assay [2], the target named is T2, dog iRhom2 full length wild type, C-terminally tagged with 3 consecutive copies of the T7 epitope (dog, UniProt Q00M95 1-827).
T2 construct: whole, on cells; also called Dog-iR2-FL-WT-T7
T2 sequence: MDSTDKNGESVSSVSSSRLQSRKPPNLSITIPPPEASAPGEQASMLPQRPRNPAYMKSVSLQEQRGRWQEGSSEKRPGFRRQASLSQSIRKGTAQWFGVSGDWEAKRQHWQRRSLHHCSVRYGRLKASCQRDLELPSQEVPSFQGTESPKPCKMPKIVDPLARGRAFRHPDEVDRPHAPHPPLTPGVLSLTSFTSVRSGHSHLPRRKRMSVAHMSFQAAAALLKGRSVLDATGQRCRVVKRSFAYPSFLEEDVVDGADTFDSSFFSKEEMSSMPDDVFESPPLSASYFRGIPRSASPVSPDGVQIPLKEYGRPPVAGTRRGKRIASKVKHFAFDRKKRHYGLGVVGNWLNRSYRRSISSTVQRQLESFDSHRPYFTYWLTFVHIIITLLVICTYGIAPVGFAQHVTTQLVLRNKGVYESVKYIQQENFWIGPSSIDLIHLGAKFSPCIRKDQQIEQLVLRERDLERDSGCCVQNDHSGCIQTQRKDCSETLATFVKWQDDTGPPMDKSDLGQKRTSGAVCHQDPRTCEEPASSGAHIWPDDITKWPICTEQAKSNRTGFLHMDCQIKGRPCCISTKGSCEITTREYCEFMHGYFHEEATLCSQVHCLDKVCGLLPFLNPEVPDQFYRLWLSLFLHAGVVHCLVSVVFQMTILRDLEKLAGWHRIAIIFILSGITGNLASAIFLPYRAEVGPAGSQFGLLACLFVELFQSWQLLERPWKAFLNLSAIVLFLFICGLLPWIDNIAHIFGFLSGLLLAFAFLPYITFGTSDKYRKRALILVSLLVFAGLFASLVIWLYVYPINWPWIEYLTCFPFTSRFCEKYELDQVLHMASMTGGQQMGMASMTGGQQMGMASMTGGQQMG
As to the kind of experiment: FACS, MEF-DKO-dog-iR2-FL-WT-T7 cells, 3 µg/ml. How it is done: (§1) In brief, immortalized MEF-DKO-EV control cells, MEF-DKO-rhesus-iR2-FL-WT-T7 cells, MEF-DKO-cyno-iR2-FL-WT-T7 cells, MEF-DKO-dog-iR2-FL-WT-T7 cells and MEF-DKO-rabbit-iR2-FL-WT-T7 cells, as well as their respective iRhom1 counterparts, were harvested with 10 mM EDTA in PBS, washed and resuspended in FACS buffer (PBS, 3% FBS, 0.05% sodium azide), and seeded in Nunc U-bottom 96-well plates (Thermo Fisher Scientific, USA) at approximately 3×10⁵ cells per well. To pellet cells and remove supernatants, the plates were centrifuged at 1,500 rpm and 4° C. for 3 minutes. For primary staining, cells were resuspended in 100 μl per well of either FACS buffer alone (controls), mouse monoclonal anti-T7 IgG (Merck Millipore, USA) at 3 μg/ml FACS buffer or the antibodies of the present disclosure also at 3 μg/ml FACS buffer and incubated on ice for 1 hour. Afterwards, plates were centrifuged at 1,500 rpm and 4° C. for 3 minutes and washed twice with 200 μl per well of FACS buffer. For secondary staining, cells were spun down and resuspended in 100 μl per well of PE-conjugated goat anti-mouse IgG F(ab′)2 detection fragment (Dianova, Germany) diluted 1:100 in FACS buffer. Protected from light, the cell suspensions were incubated on ice for 1 hour. […] Finally, cells were resuspended in 150 μl per well of FACS buffer and analyzed using a BD Accuri™ C6 Plus flow cytometer (Becton Dickinson, Germany).

Assay [3] concerns the target T2, dog iRhom2 full length wild type, …. As to the kind of experiment: FACS on MEF-DKO-iR2 Dog cells, 3 µg/ml. The protocol:
as §1

The values that follow come from US20240174744A1 (SCIRHOM, published 2024).

B1: antibody 5 (antibody, V domains shown)
VH: QVTLKESGPGILQPSQTLSLTCSFSGFSLSTFGMGVGWIRQPSGKGLEWLAHIWWDDEKYYNSALKSRLTISKATSKNQAFLKIANVDTADTATYYCARISNYGSNYWYFNVWGTGTTVTVSS
VL: QVVLTQSPALMSASPGEKVTMTCSAGSSVSCMYWYQQKPGSSPRVLIYDTSNLASGVPARFTGSGSGTSYSLTISRMEAEDAASYYCQQWNSYPLTFGAGTKLELK
notes: Mouse IgG, kappa light chain; also called clone #5; purified antibody 5
On to B1, for which the binding result is “no binding (tested: 3 µg/ml)” in assay [1] and “binds” in assay [2].

B2: antibody 16 (antibody, V domains shown)
VH: QVTLKESGPGILQPSQTLSLTCSFSGFSLSTFALGVGWIRQPSGRGLEWLAHIWWDDDKYYNPALKSRLTISKDTSKNHVFLKIANVDTADTATYYCARITTYYYGMDYWGQGTSVTVSS
VL: DIVLSQSPATLSVTPGDSVSLFCRASQSIGNHLHWYQQESHASPRLLIKYASQSISGIPSRFSGSGSGTDFTLSINSVETEDFGMYFCQQSYNWPLTFGAGTKLELK
notes: Mouse IgG, kappa light chain; also called clone #16; m16
Regarding B2, in assay [3], the binding result is “binds”.

B3: antibody 3 (antibody, V domains shown)
VH: QVTLKESGPGILQPSQTLSLTCSFSGFSLTTFAMGIGWVRQPSGKGLEWLAHIWWDGEKYNNPVLKSRLTISKDTSKNQVFLRIANVDTPDTATYYCARISSIYYIIDNWGQGTSVTVSS
VL: DIVLTQSPATLSVTPGHSVSLSCRASQSISNNLHWYQKKSHESPRLLIKYVSQSISGIPSRFSGSGSGTDFTLSINSVETEDFGMYFCQQSYNWPLTFGAGTKLELK
notes: Mouse IgG, kappa light chain; also called clone #3; purified antibody 3
For the molecule B3, in assay [2], the binding result is reported as “binds”.
